What was measured:
Assay in all cases: UV-crosslinking of recombinant p37AUF1 to radiolabeled RNA
Assay type in all cases: binding
Conditions in all cases: UV irradiation, Rnase A+T1 digestion, SDS-PAGE, autoradiography
human β1-AR 3′UTR RNA = test system: human β1-AR 3′UTR RNA
Description: (§1) FIG. 5 represents an autoradiogram showing UV-crosslinking of purified, recombinant p37AUF1 polypeptide to human β1-AR 3′UTR RNA. Autoradiogram of recombinant p37AUF1 UV-crosslinked to radiolabeled, in vitro transcribed human β1-AR 3′UTR RNA. Lane 1, β1-AR RNA in the absence of competitor RNA. Lanes 2 and 3, β1-AR RNA is the presence of 10-fold and 100-fold molar excess of unlabeled β1-AR RNA. Lane 4, β1-AR RNA in the presence of 100-fold molar excess of rabbit β-globin RNA (Rb). Lane 5, c-fos ARE only. Lane 6, rabbit β-globin RNA only.
(§2) To show AUF1 binds to the human β1-AR 3′UTR, radiolabeled RNA was incubated with purified, recombinant p37AUF1, subjected to UV irradiation, Rnase A+T1 digestion, SDS-PAGE, and autoradiography. Recombinant p37AUF1 polypeptide binds to the β1-AR 3′UTR and to the c-fos ARE but fails to bind to rabbit β-globin (Rβ) RNA (FIG. 5).
A 919 bp cDNA fragment corresponding to the β1AR 3′ UTR was synthesized by PCR and subcloned into pcDNA3 (Invitrogen) utilizing the Xho I and Xba I restriction endonuclease sites. The resulting vector was linearized with Xba I, and in vitro transcription was performed as described in Port et al., J. Biol. Chem. 267:24103-24108 (1992). Briefly, radiolabeled RNA was synthesized using T7 DNA-directed RNA polymerase and [α-^32P]UTP (800 Ci/mmol, New England Nuclear) to produce uniformly labeled, 5′-capped RNA. […]

rabbit β-globin (Rβ) RNA = test system: rabbit β-globin (Rβ) RNA
Description: as §1, §2
(§3) A 0.3M KC1 ribosomal salt wash (RSW) was produced from DDT1-MF2 cells using the method of Brewer and Ross, Methods in Enzyznology 181:202-209 (1990). UV-crosslinking was performed as described in Port et al., J. Biol. Chem. 267:24103-24108 (1992) Briefly, an aliquot of radiolabeled RNA (1-4×10^6 cpm) was added to a mixture containing 20 μl of RSW (˜5×10^6 cell equivalents/μl) from DDT1-MF2 cells, 5 μg of yeast tRNA, 4 mM dithiothreitol, 5 μg heparin, and 65 units of Rnasin™ in a total volume of 50 μl. […]

c-fos ARE = test system: c-fos ARE
Description: as §1, §2, §3

B1: p37AUF1: purified, recombinant p37AUF1 polypeptide (His6 fusion expressed in E. coli), A+U-rich element RNA-binding factor (protein)
chain: MSEEQFGGDGAAAAATAAVGGSAGEQEGAMVAATQGAAAAAGSGAGTGGGTASGGTEGGSAESEGAKIDASKNEEDEGKMFIGGLSWDTTKKDLKDYFSKFGEVVDCTLKLDPITGRSRGFGFVLFKESESVDKVMDQKEHKLNGKVIDPKRAKAMKTKEPVKKIFVGGLSPDTPEEKIREYFGGFGEVESIELPMDNKTNKRRGFCFITFKEEEPVKKIMEKKYHNVGLSKCEIKVAMSKEQYQQQQQWGSRGGFAGRARGRGGDQQSGYGKVSRRGGHQNSYKPY
modifications: left off: small tags and cut ends
binding to β1-AR 3′UTR (human β1-AR 3′UTR RNA): binds | binding to rabbit β-globin (Rβ) RNA (rabbit β-globin (Rβ) RNA): fails to bind | binding to c-fos ARE (c-fos ARE): binds
